In the series the target is human serum albumin (Homo sapiens, UniProt P02768 25-609). Nature of the series: BLI; EMSA: 0.1 nmol siRNA conjugate, 5x molar excess albumin, 30 min at 37 C, 4-20% TGX gel; BLI: albumin 400 nM (or varied), buffer not in material.
Sequence of human serum albumin (P02768 25-609): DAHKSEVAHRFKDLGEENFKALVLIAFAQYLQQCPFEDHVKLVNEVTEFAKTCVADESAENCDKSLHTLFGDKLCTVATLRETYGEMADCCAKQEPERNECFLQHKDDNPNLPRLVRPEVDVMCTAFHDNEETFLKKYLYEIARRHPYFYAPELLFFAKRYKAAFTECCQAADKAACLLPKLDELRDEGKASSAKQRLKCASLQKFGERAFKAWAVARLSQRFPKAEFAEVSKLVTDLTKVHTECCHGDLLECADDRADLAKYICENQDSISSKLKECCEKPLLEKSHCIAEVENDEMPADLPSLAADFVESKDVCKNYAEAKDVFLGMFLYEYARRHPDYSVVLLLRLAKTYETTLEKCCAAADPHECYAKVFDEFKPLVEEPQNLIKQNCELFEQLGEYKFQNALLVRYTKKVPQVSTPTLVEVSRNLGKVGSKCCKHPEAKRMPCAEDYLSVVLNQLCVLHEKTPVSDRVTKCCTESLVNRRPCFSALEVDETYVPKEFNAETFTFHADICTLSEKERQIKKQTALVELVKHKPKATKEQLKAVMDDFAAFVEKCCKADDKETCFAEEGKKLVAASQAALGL

B1: si<(EG18L)2 (dsRNA)
RNA 1: CAAUUGCACUGAUAAUGAA
RNA 2: UUCAUUAUCAGUGCAAUUG
modifications: 2'-F/2'-OMe, PS; 5' sense divalent stearyl, 18 EG per arm, proximal branch
By Kd is commonly meant the constant that tells how readily two partners part at equilibrium. Higher therefore signals weaker binding. Consider B1, for which the affinity, expressed as Kd, was 30 ± 0.3 nM.

B2: si<(EG30L)2 (dsRNA)
RNA 1: CAAUUGCACUGAUAAUGAA
RNA 2: UUCAUUAUCAGUGCAAUUG
modifications: 2'-F/2'-OMe, PS; 5' sense divalent stearyl, 30 EG per arm
B2 registered a Kd of 9.49 ± 0.1 nM.

The record behind these values is paper PMC10881965, “Structural optimization of siRNA conjugates for albumin binding achieves effective MCL1-directed cancer therapy”.
